This is an account of results in PMC4143955.

This assay addresses SCMV-BJ VPg-YFP^N (BiFC fusion, pUC-SPYNE) (Sugarcane mosaic virus, Beijing isolate (SCMV-BJ)). As to the kind of experiment: split reporter (BiFC, NanoBiT); BiFC: YFP^N and YFP^C fusions co-transfected into maize protoplasts; YFP fluorescence captured at 12-18 h post transfection by confocal microscopy.

“YFP^C-ZmElc (BiFC fusion, pGD-YFP^C-ZmELC) (natural protein)”: the percentage of protoplasts exhibiting fluorescence signal was determined as 64%.
